The source of these data is patent publication US20180111996A1.

Assay [1] has as its target human PD-1 (hPD-1) receptor expressed on cells (human) (UniProt Q15116). The experiment in a line: CELISA on CHO-hPD-1 cells.
Assay [2] shares this target. The experiment in a line: FMAT, blockade of labeled hPD-L2/Fc binding to CHO-hPD-1 cells.
The target is the same in assay [3]. The experiment in a line: FACS, blockade of hPD-L1/Fc binding to CHO cells expressing human PD-1.
Assay [4] addresses hPD-1/Fc (R & D Systems) (human) (UniProt Q15116). The experiment in a line: protein ELISA, hPD-1/Fc immobilized.
Assay [5] addresses human PD-1 (hPD-1) receptor expressed on cells (human) (UniProt Q15116). The experiment in a line: FMAT, blockade of labeled hPD-L1/Fc binding to CHO-hPD-1 cells.
The target of assay [6] is hPD-1/Fc (R & D Systems) (human) (UniProt Q15116). The experiment in a line: bio-light interferometry (ForteBio Octet), PD-1/Fc on biosensor.
Sequence of hPD-1/Fc (R & D Systems) (human) (Q15116 25-167 limits assumed): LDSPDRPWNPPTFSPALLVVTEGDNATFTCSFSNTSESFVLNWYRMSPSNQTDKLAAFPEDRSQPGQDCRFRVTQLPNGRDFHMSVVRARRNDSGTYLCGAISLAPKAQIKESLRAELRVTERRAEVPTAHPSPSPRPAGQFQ
For assay [7], the target named is human PD-1 (hPD-1) receptor expressed on cells (human) (UniProt Q15116). The experiment in a line: FACS, blockade of hPD-L1/Fc binding to CHO cells expressing human PD-1. The source holds these as a separate data set.
Sequence of human PD-1 (hPD-1) receptor expressed on cells (human) (Q15116 25-288): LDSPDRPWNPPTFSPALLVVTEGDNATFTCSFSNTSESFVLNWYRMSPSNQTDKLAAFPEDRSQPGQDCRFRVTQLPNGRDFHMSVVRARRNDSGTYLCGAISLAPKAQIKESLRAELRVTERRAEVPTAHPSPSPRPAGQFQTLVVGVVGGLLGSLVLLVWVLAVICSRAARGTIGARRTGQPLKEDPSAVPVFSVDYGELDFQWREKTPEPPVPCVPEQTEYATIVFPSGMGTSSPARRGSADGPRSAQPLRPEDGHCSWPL

With “Anti-PD-1 antibody clone J116 (eBioscience #14-9989)”, the 50% effective concentration (EC50) in assay [1] turned out to be 0.349 nM; in assay [4], 0.41 nM. For the same substance, the IC50 in assay [2] was 0.044 nM; in assay [3], over 100 nM; in assay [5] it was over 0.1 nM; in assay [7], 0.106 nM. The substance further returned a Kd in assay [6] of 1.82 nM. Moreover, in assay [6], the koff amounted to 0.00015 s⁻¹. Further, in assay [6], the kon was 82400 M⁻¹ s⁻¹.
